The values below are quoted from earlier work in patent publication US5763478A, “Triterpene derivatives with immunosuppressant activity” (Merck & Co., Inc., priority 1996, dated 1998).

For this data set, the target named is T1, KV 1.3 channels (CHO cells transfected with KV 1.3) (Homo sapiens, UniProt P22001).
T1 construct: expressed in transfected cells; host or cells: CHO cells
The conditions noted are these: reference blocker used at saturating concentration to set the efflux window.

T1 sequence (P22001 53-575 limits assumed): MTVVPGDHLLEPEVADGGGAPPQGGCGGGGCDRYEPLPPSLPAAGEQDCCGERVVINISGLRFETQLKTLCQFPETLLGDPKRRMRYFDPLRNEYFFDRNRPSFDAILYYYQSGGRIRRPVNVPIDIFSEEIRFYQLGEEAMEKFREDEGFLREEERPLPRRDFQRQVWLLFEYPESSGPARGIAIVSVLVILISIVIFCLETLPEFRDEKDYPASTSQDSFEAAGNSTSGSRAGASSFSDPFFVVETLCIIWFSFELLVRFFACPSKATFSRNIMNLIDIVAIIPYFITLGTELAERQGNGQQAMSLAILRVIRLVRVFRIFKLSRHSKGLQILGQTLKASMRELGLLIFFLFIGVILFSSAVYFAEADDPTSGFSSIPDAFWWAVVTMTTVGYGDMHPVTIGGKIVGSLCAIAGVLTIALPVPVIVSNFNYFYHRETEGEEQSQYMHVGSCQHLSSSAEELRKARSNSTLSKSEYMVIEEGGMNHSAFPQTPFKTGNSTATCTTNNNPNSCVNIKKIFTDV

Turning to “margatoxin (TIINVKCTSPKQCLPPCKAQFGQSAGAKCMNGKCKCYPH; UniProt P40755 1-39, looked up)”, the IC50 is 0.1 nM.

As usually defined, the IC50 is the concentration at which inhibition is half-maximal.
